The values below come from US8021833.

This experiment deals with TSG101 (UniProt Q99816). Description: cell-based or functional assay.
UniProt Q99816, sequence (Q99816 2-390 limits assumed): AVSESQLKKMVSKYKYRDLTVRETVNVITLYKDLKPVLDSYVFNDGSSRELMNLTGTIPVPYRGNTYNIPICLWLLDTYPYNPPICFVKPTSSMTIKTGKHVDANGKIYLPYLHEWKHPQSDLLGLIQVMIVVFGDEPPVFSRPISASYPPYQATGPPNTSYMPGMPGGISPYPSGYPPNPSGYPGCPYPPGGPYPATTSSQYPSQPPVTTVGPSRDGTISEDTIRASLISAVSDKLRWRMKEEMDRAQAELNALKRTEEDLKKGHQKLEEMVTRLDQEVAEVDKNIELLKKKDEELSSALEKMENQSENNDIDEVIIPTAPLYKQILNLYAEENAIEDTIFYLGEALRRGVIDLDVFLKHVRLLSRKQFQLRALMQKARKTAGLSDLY

“Vps28 mutant with deletion of amino acids 126 to 167, C-terminal Flag tag (from UniProt Q9UK41 1-125; Q9UK41 168-221)”: the release of HIV-1 from transfected 293T cells came out at 63 % inhibition.
Still for that read-out and setting: the result for “Vps28 mutant with deletion of the N-terminal 27 amino acids, C-terminal Flag tag (from UniProt Q9UK41 28-221)” reads 72 % reduction.
As to “Vps28ΔC, C-terminal 43-amino acid deletion mutant of Vps28, C-terminal Flag tag (from UniProt Q9UK41 1-178)”, the release of HIV-1 from transfected 293T cells turned out to be 67 % reduction and the release of HIV-1 from transfected 293T cells, repeated experiments was in the range of 53 to 75 % inhibition.
